Blank lines part the entries; values can stand above or below the molecule they belong to.
Assays:
[1] = biological target: ultra-large von Willebrand factor (ULvWF) (human) (UniProt P04275); assay: cell-based or functional assay
[2] = biological target: T1, human von Willebrand Factor (vWF) (human, UniProt P04275 764-2813); assay: ELISA on coated vWF: supernatant of a 200 µg/ml nanobody solution heated for 1 h at RT to 90 °C, dilution series, OD 405 nm
T1 construct: Multimeric plasma protein; The species of the vWF on the BIACORE chip and ELISA plates is not restated there; also called vWF (Red Cross); human vWF

[3] = biological target: T1, human von Willebrand Factor (vWF); assay: ELISA: vWF coated on the plate, nanobody titrated in 3-fold steps, detection with mouse anti-myc and anti-mouse-HRP, OD 405 nm
[4] = biological target: T2, pig vWF (pig, UniProt Q28833 438-2482); assay: sandwich ELISA: nanobody (10 µg/ml) captured on coated anti-myc, plasma from a 5-fold dilution in 2-fold steps, detection with polyclonal anti-vWF-HRP, OD 405 nm
T2 construct: Native vWF in plasma
Protocol: A microtiterplate was coated with mouse anti-myc at 1/1000 overnight at 4° C. The plate was washed with PBS-Tween and blocked for two hours at room temperature with PBS-1% casein. After washing, the nanobodies were applied at a concentration of 10 μg/ml in PBS. After a one hour incubation period, the plates were washed and plasma (dog, pig, human, baboon and cynomologues monkey) was applied starting at a five-fold dilution and making further two-fold dilutions in PBS. The plates were incubated for 1 hour at room temperature. […] The plates were washed and ABTS/H₂O₂ substrate was applied. The OD 405 nm was measured.

[5] = biological target: T1, human von Willebrand Factor (vWF); assay: ELISA: vWF coated on the plate, nanobody titrated from 10 µg/ml in 3-fold steps, detection with mouse anti-myc and anti-mouse-HRP, OD 405 nm
Protocol: The plate was coated overnight at 4° C. The plate was then washed with PBS-Tween and blocked for two hours at room temperature with PBS-1% casein. After washing, the samples were applied starting at a concentration of 10 μg/ml and 3-fold dilutions were made in PBS. After a two hours incubation period, the plates were washed and mouse monoclonal anti-myc antibody at a 1000-fold dilution was applied for 1 hour at room temperature. The plates were washed and polyclonal anti-mouse-HRP (DAKO) was applied at a 1000-fold dilution for one hour at room temperature. The plates were washed and ABTS/H₂O₂ substrate was applied. The OD 405 nm was measured.

[6] = biological target: T1, human von Willebrand Factor (vWF); assay: ELISA: vWF coated on the plate, nanobody titrated in 3-fold steps, detection with mouse anti-myc and anti-mouse-HRP, OD 405 nm; remark: listed apart in the source
[7] = biological target: T1, human von Willebrand Factor (vWF); assay: BIACORE (SPR): vWF amine-coupled to a CM5 chip, nanobody injected at 1.3 nM
Protocol: (§1) The CM5 surface of the chip was activated by the injection of EDC/NHS (1:1 mix of 0.4 M 1-ethyl-3-(3-dimethylaminopropyl)-carbodiimide and 0.1 M N-hydroxysuccinimide in water) for 7 minutes. […] The excess of reactive groups was deactivated with 1 M Ethanolamine-HCl (pH 8.5) for 7 minutes. The flowrate was kept constant during the immobilization procedure at 5 ul/min The eluent buffer was 0.01 M HEPES (pH 7.4) with 0.15 M NaCl, 3 mM EDTA and 0.005% Surfactant P20.

[8] = biological target: T1, human von Willebrand Factor (vWF); assay: as above; remark: listed apart in the source
Protocol: as §1

[9] = biological target: A1A2A3 construct, P04275

cleavage of ULvWF platelet strings on perfusion of pooled normal plasma containing ADAMTS-13 [1]: > 95% | cleavage of ULvWF platelet strings on perfusion of pooled normal plasma containing ADAMTS-13 and ALX-0081 (10 µg/ml) [1]: 95%
Molecule: ADAMTS-13 (from UniProt Q76LX8 75-1427) (enzyme)

binding result [4]: binds
B3: 12A2 (VHH)
VHH: QVKLEESGGGLVQAGGALRLSCAASGRTFSYNPMGWFRQAPGKERDLVAAISRTGGSTYYPDSVEGRFTISRDNAKRMVYLQMNNLKPEDTAVYYCAAAGVRAEDGRVRTLPSEYTFWGQGTQVTVSS
notes: 12B6 homologue, monovalent Nanobody

binding result [5]: binds
B6: 12D11 (VHH)
VHH: AVQLVDSGGGLVQAGGSLRLSCTASERTTFSSYTLGWFRQAPGKEREFVGGISWSGVSTDYAEFAKGRFTISRDHAANTVYLEMNSLKPEDTAVYYCAALGRYRSNWRNIGQYDYWGQGTQVTVSS
notes: Monovalent llama Nanobody; TALON-purified and detected with anti-myc, so tagged (myc/His)

binding result [8]: binds
B10: 12A2-3a-12A2 (VHH)
chain: QVKLEESGGGLVQAGGALRLSCAASGRTFSYNPMGWFRQAPGKERDLVAAISRTGGSTYYPDSVEGRFTISRDNAKRMVYLQMNNLKPEDTAVYYCAAAGVRAEDGRVRTLPSEYTFWGQGTQVTVSSAAAEVQLVESGGGLVQAGGALRLSCAASGRTFSYNPMGWFRQAPGKERDLVAAISRTGGSTYYPDSVEGRFTISRDNAKRMVYLQMNNLKPEDTAVYYCAAAGVRAEDGRVRTLPSEYTFWGQGTQVTVSS
notes: also called bivalent 12A2

binding result [7]: binds
B11: 12B6-GS30-12B6 (VHH)
chain: QVQLVESGGGLVQAGGALRLSCAASGRTFSYNPMGWFRQAPGKERDVVAAISRTGGSTYYARSVEGRFTISRDNAKRMVYLQMNALKPEDTAVYYCAAAGVRAEDGRVRTLPSEYNFWGQGTQVTVSSGGGGSGGGGSGGGGSGGGGSGGGGSGGGGSEVQLVESGGGLVQAGGALRLSCAASGRTFSYNPMGWFRQAPGKERDVVAAISRTGGSTYYARSVEGRFTISRDNAKRMVYLQMNALKPEDTAVYYCAAAGVRAEDGRVRTLPSEYNFWGQGTQVTVSS
notes: also called bivalent 12B6

binding result [8]: binds
B13: 12A2-GS9-12A2 (VHH)
chain: QVKLEESGGGLVQAGGALRLSCAASGRTFSYNPMGWFRQAPGKERDLVAAISRTGGSTYYPDSVEGRFTISRDNAKRMVYLQMNNLKPEDTAVYYCAAAGVRAEDGRVRTLPSEYTFWGQGTQVTVSSGGGGSGGGSEVQLVESGGGLVQAGGALRLSCAASGRTFSYNPMGWFRQAPGKERDLVAAISRTGGSTYYPDSVEGRFTISRDNAKRMVYLQMNNLKPEDTAVYYCAAAGVRAEDGRVRTLPSEYTFWGQGTQVTVSS
notes: also called bivalent 12A2

binding result [5]: binds
B16: 12E3 (VHH)
VHH: EVQLVESGGGLVQAGGSLRLSCAASGRTFNNYGMGWFRQAPGKEREFVTSISWSGSYTAYADNVKGRFTISRDNAKNTVYLQMDSLKPGDTAVYYCAAQSRYSSNYYDHDDKYAYWGQGTQVTVSS
notes: as for B6

EC50 (read off the curve) [5]: ~0.02 µg/mL
B17: 14F8 (VHH)
VHH: AVQLVESGGGLVQAGESLRLSCTSSGRAFSYYNTGWFRQAPGKEREFVAAISWSGGLTYYADSVKGRFTISRDNAKDMVYLQMASLKPEDTAVYYCAANRRQKTVQMGERAYDYWGQGTQVTVSS
notes: as for B6

binding result [5]: binds
B18: 12C9 (VHH)
VHH: AVQLVESGGGLVQPGGSLKLSCATSGSIFSSSAMAWYRQASGKQRELVATITSGGRTSYADSVKGRFTISRDNAKNTVYLQMNSLKPEDTAVYDCNFVVDGKRAPWGQGTQVTVSS
notes: as for B6

The remaining lines, values behind:

B1: 12A2H1 (VHH)
VHH: EVQLVESGGGLVQPGGSLRLSCAASGRTFSYNPMGWFRQAPGKGRELVAAISRTGGSTYYPDSVEGRFTISRDNAKRMVYLQMNSLRAEDTAVYYCAAAGVRAEDGRVRTLPSEYTFWGQGTQVTVSS
notes: Humanised 12A2, monovalent
binding result [2]: binds

B2: 12B6H2 (VHH)
VHH: EVQLVESGGGLVQPGGSLRLSCAASGRTFSYNPMGWFRQAPGKGREVVAAISRTGGSTYYARSVEGRFTISRDNAKRMVYLQMNSLRAEDTAVYYCAAAGVRAEDGRVRTLPSEYNFWGQGTQVTVSS
notes: Humanised 12B6, monovalent
EC50 (read off the curve) [3]: ~0.01 µg/mL

B4: 12B6H1 (VHH)
VHH: EVQLVESGGGLVQPGGSLRLSCAASGRTFSYNPMGWFRQAPGKGRDVVAAISRTGGSTYYARSVEGRFTISRDNAKRMVYLQMNSLRAEDTAVYYCAAAGVRAEDGRVRTLPSEYNFWGQGTQVTVSS
notes: Humanised 12B6, monovalent
EC50 (read off the curve) [3]: ~0.02 µg/mL

B5: 12B6 (VHH)
VHH: QVQLVESGGGLVQAGGALRLSCAASGRTFSYNPMGWFRQAPGKERDVVAAISRTGGSTYYARSVEGRFTISRDNAKRMVYLQMNALKPEDTAVYYCAAAGVRAEDGRVRTLPSEYNFWGQGTQVTVSS
notes: as for B6
EC50 (read off the curve) [5]: ~0.02 µg/mL

B7: 12A5H1 (VHH)
VHH: EVQLVESGGGLVQPGGSLRLSCAASGRIFSIGAMGMYRQAPGKGRELVATITSGGSTNYADPVKGRFTISRDGPKNTVYLQMNSLRAEDTAVYYCYANLKQGSYGYRFNDYWGQGTQVTVSS
notes: Humanised 12A5, monovalent; TALON-purified, so His-tagged
EC50 (read off the curve) [6]: ~0.005 µg/mL

B8: 12A5H2 (VHH)
VHH: EVQLVESGGGLVQPGGSLRLSCAASGRIFSIGAMGMYRQAPGKGRELVATITSGGSTNYADPVKGRFTISRDGAKNTVYLQMNSLRAEDTAVYYCYANLKQGSYGYRFNDYWGQGTQVTVSS
notes: as for B7
EC50 (read off the curve) [6]: ~0.03 µg/mL

B9: 12B6-3a-12B6 (VHH)
chain: QVQLVESGGGLVQAGGALRLSCAASGRTFSYNPMGWFRQAPGKERDVVAAISRTGGSTYYARSVEGRFTISRDNAKRMVYLQMNALKPEDTAVYYCAAAGVRAEDGRVRTLPSEYNFWGQGTQVTVSSAAAEVQLVESGGGLVQAGGALRLSCAASGRTFSYNPMGWFRQAPGKERDVVAAISRTGGSTYYARSVEGRFTISRDNAKRMVYLQMNALKPEDTAVYYCAAAGVRAEDGRVRTLPSEYNFWGQGTQVTVSS
notes: also called bivalent 12B6
binding result [7]: binds

B12: 12B6-GS9-12B6 (VHH)
chain: QVQLVESGGGLVQAGGALRLSCAASGRTFSYNPMGWFRQAPGKERDVVAAISRTGGSTYYARSVEGRFTISRDNAKRMVYLQMNALKPEDTAVYYCAAAGVRAEDGRVRTLPSEYNFWGQGTQVTVSSGGGGSGGGSEVQLVESGGGLVQAGGALRLSCAASGRTFSYNPMGWFRQAPGKERDVVAAISRTGGSTYYARSVEGRFTISRDNAKRMVYLQMNALKPEDTAVYYCAAAGVRAEDGRVRTLPSEYNFWGQGTQVTVSS
notes: also called bivalent 12B6
binding result [7]: binds

B14: ADAMTS-13 (protein)
chain: AAGGILHLELLVAVGPDVFQAHQEDTERYVLTNLNIGAELLRDPSLGAQFRVHLVKMVILTEPEGAPNITANLTSSLLSVCGWSQTINPEDDTDPGHADLVLYITRFDLELPDGNRQVRGVTQLGGACSPTWSCLITEDTGFDLGVTIAHEIGHSFGLEHDGAPGSGCGPSGHVMASDGAAPRAGLAWSPCSRRQLLSLLSAGRARCVWDPPRPQPGSAGHPPDAQPGLYYSANEQCRVAFGPKAVACTFAREHLDMCQALSCHTDPLDQSSCSRLLVPLLDGTECGVEKWCSKGRCRSLVELTPIAAVHGRWSSWGPRSPCSRSCGGGVVTRRRQCNNPRPAFGGRACVGADLQAEMCNTQACEKTQLEFMSQQCARTDGQPLRSSPGGASFYHWGAAVPHSQGDALCRHMCRAIGESFIMKRGDSFLDGTRCMPSGPREDGTLSLCVSGSCRTFGCDGRMDSQQVWDRCQVCGGDNSTCSPRKGSFTAGRAREYVTFLTVTPNLTSVYIANHRPLFTHLAVRIGGRYVVAGKMSISPNTTYPSLLEDGRVEYRVALTEDRLPRLEEIRIWGPLQEDADIQVYRRYGEEYGNLTRPDITFTYFQPKPRQAWVWAAVRGPCSVSCGAGLRWVNYSCLDQARKELVETVQCQGSQQPPAWPEACVLEPCPPYWAVGDFGPCSASCGGGLRERPVRCVEAQGSLLKTLPPARCRAGAQQPAVALETCNPQPCPARWEVSEPSSCTSAGGAGLALENETCVPGADGLEAPVTEGPGSVDEKLPAPEPCVGMSCPPGWGHLDATSAGEKAPSPWGSIRTGAQAAHVWTPAAGSCSVSCGRGLMELRFLCMDSALRVPVQEELCGLASKPGSRREVCQAVPCPARWQYKLAACSVSCGRGVVRRILYCARAHGEDDGEEILLDTQCQGLPRPEPQEACSLEPCPPRWKVMSLGPCSASCGLGTARRSVACVQLDQGQDVEVDEAACAALVRPEASVPCLIADCTYRWHVGTWMECSVSCGDGIQRRRDTCLGPQAQAPVPADFCQHLPKPVTVRGCWAGPCVGQGTPSLVPHEEAAAPGRTTATPAGASLEWSQARGLLFSPAPQPRRLLPGPQENSVQSSACGRQHLEPTGTIDMRGPGQADCAVAIGRPLGEVVTLRVLESSLNCSAGDMLLLWGRLTWRKMCRKLLDMTFSSKTNTLVVRQRCGRPGGGVLLRYGSQLAPETFYRECDMQLFGPWGEIVSPSLSPATSNAGGCRLFINVAPHARIAIHALATNMGAGTEGANASYILIRDTHSLRTTAFHGQQVLYWESESSQAEMEFSEGFLKAQASLRGQYWTLQSWVPEMQDPQSWKGKEGT
proteolytic cleavage of the A1-A2-A3 fragment by normal pool plasma (Western blot) [9]: resulting in proteolytic cleavage of the fragment

B15: 12B1 (VHH)
VHH: QVQLVESGGGLVQAGGSLRLSCAASGRTFSNYGMGWFRQAPGKEREFVTSISWSGTYTAYSDNVKGRFTISRDNAKNTVYLQMDSLKPEDTAVYYCAAQSRYRSNYYDHDDKYAYWGQGTQVTVSS
notes: as for B6
EC50 (read off the curve) [5]: ~0.02 µg/mL

From patent US20130136736A1 (Ablynx, published 2013)
